We go through two substances from paper PMC10011430.

The target of the test is DENV NS2B3 protease, active site mutant NS2B3^S135A (coexpressed NS2B hydrophilic core and NS3 prote (Dengue virus (serotype not given))). Description: native gel or EMSA.

One may read the Kd as the constant that tells how readily two partners part at equilibrium. The low end stands for a tighter complex, the high end for a looser complex.

Substance “cGAS cleavage product C-terminal (CP-C, 125-522) (from UniProt Q8N884 125-522) (domain or fragment)” showed a Kd of 39.2 µM. Under “full-length human cyclic GMP-AMP synthase (cGAS) (from UniProt Q8N884 1-522) (natural protein)” stands 21.6 µM.
